This is an account of results in PMC3326326.

In general, stoichiometry N refers to the number of molecules, sites or subunits per partner or assembly.

Like-named read-outs stand apart in the source and are kept apart here.

In data set [1] the target is penta-His-tagged PfAlba3 (Plasmodium falciparum (3D7)). Description: AUC.
Data set [2] deals with T1, PfAlba4 (Plasmodium falciparum 3D7, UniProt A0A5K1K8Y8 1-372).
T1 sequence: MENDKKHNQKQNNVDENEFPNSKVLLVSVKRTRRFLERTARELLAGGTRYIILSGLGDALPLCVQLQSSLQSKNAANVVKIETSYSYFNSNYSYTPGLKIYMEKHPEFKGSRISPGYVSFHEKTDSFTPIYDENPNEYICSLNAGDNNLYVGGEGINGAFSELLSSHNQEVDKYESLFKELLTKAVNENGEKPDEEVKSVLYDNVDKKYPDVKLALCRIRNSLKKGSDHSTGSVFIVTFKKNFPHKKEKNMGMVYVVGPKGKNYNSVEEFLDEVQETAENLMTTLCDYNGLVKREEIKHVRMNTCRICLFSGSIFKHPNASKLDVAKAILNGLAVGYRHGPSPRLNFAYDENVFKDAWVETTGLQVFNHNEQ
As to the kind of experiment: competition.

The target in data set [3] is T2, PfAlba2 (Plasmodium falciparum 3D7, UniProt Q8IDN4 1-211).
T2 sequence: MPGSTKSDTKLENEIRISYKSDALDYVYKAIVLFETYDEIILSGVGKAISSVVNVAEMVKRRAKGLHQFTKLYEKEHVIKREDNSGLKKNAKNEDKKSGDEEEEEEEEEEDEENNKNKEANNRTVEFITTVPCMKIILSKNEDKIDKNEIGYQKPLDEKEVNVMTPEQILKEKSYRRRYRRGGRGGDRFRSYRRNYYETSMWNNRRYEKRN
Description: EMSA. (Mobility shift assays separate free from complexed probe on a gel.)

The target of data set [4] is T3, PfAlba3 (Plasmodium falciparum 3D7, UniProt Q8IJX8 1-107).
T3 sequence: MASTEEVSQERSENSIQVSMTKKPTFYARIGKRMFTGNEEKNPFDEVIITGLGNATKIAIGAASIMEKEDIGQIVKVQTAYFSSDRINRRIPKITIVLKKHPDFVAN
Description: EMSA.

The target in data set [5] is T1, PfAlba4. As to the kind of experiment: competition. This is another data set of the same source.
In data set [6] the target is T2, PfAlba2. As to the kind of experiment: EMSA. The source holds these as a separate data set.
Data set [7] addresses T1, PfAlba4. Description: EMSA.
For data set [8], the target named is T1, PfAlba4. As to the kind of experiment: competition. The source holds these as a separate data set.
The target in data set [9] is T2, PfAlba2. Description: EMSA. This is another data set of the same source.
The target in data set [10] is T1, PfAlba4. As to the kind of experiment: EMSA. The source holds these as a separate data set.
Data set [11] deals with T3, PfAlba3. As to the kind of experiment: EMSA. This is another data set of the same source.
The next data set deals with T4, PfAlba1 (Plasmodium falciparum 3D7, UniProt Q8IAX8 1-248).
T4 sequence: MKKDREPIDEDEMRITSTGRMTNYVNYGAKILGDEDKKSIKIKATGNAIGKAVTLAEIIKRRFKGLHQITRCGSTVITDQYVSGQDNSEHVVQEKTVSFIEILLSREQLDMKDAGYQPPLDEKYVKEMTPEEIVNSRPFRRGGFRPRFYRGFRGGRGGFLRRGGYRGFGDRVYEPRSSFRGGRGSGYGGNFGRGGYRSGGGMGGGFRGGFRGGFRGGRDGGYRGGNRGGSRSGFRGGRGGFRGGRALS
Description: EMSA.

For “penta-His-tagged PfAlba3 (natural protein)”, the stoichiometry N in data set [1] came to 2.

B1: TARE6 fragment 42 bp (F1) (dsDNA)
DNA 1: CCCAAGCTTACTTATATTAGGACCTATATTAGTTATCTGAGG
DNA 2: CCTCAGATAACTAATATAGGTCCTAATATAAGTAAGCTTGGG
B1: the binding result with PfAlba4 [2] is reported as “binds”.

B2: TARE6 (79 bp) (dsDNA)
DNA 1: CCCAAGCTTACTTATATTAGGACCTATATTAGTTATCTGAGGACCTATATTACTTATTTTAGGACCTATATTGAATTCC
DNA 2: GGAATTCAATATAGGTCCTAAAATAAGTAATATAGGTCCTCAGATAACTAATATAGGTCCTAATATAAGTAAGCTTGGG
Turning to B2, the binding result with PfAlba2 [3] and in the data set with PfAlba3 [4] was “binds” throughout.

B3: Actin-II (dsDNA)
DNA 1: TCTGAAGAAGCTGTTGCTTTAGTAGTTGATAATGGAAGTGGT
DNA 2: ACCACTTCCATTATCAACTACTAAAGCAACAGCTTCTTCAGA
As to B3, the binding result with PfAlba4 [5] is on record as “binds”.
For UUUUUUUUUUUUUUUUUUUUUU (ssRNA) [polyU 22-mer], the binding result with PfAlba2 [6] and in the data set with PfAlba4 [7] was “binds” each time.

B4: Scr F1 (dsDNA)
DNA 1: GTACTTACTCTAATCTAGTCGTAGTATGTATGCCTCAATGAA
DNA 2: TTCATTGAGGCATACATACTACGACTAGATTAGAGTAAGTAC
For the molecule B4, the binding result in the data set with PfAlba4 [5] is listed as “binds”.
On to AAAAAAAAAAAAAAAAAAAAAA (ssRNA) [polyA 22-mer, unlabeled], for which the binding result with PfAlba4 [8] is on record as “binds”.
With AAAAAAAAAAAAAAAAAAAAAA (ssRNA) [polyA 22-mer], the binding result with PfAlba2 [9], in the data set with PfAlba4 [10], with PfAlba3 [11] and with PfAlba1 was “binds” each time.

B5: HSP70 (dsDNA)
DNA 1: GCTAGTGCAAAAGGTTCAAAACCAAATTTACCAGAATCCAAT
DNA 2: ATTGGATTCTGGTAAATTTGGTTTTGAACCTTTTGCACTAGC
For the molecule B5, the binding result with PfAlba4 [5] was “binds”.
